± gives the uncertainty stated by the source.

Among the data in the supplement of paper PMC12042874 are amyloid nucleation score values, retold here.

A short description of the data set: amyloid nucleation score (Sup35N fusion, yeast selection) (log enrichment); library NNK2; higher = more nucleation; inactive = no reads after selection. The method in brief:
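In psi-negative yeast, Sup35N fusions carrying peptides of 20 random codons were induced with 100 μM copper sulfate for 24 hours. The cells then grew 7 days at 30°C on medium lacking adenine and uracil, and plasmid inserts from input and output were Illumina-sequenced, excluding sequences with under 100 input reads. Nucleation score is the DiMSum log enrichment of output over input reads, centred on the mode score of non-aggregating sequences.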
Regarding YRFKLFTHRYILFNWVFLLL, the amyloid nucleation score entry was “inactive”. Then YRILSNASWTFAVVQSCNPY, with 5.789 ± 0.047. For YRINEDET, the amyloid nucleation score was -1.55 ± 0.41. Then YRLNVNKSSNQGV, with -0.712 ± 0.45. Next, YRLYDRENSAICYISYTLLL: 2.36 ± 0.069; YRMCLLRYT: -0.936 ± 0.55; YRMLSIKCGM: -0.707 ± 0.79. Then YRNCLPMGGNALS, with -0.964 ± 1.1; and YRPITRMCSWDRNSLWWSRY, with -0.582 ± 0.54; and YRRQPS, with 0.174 ± 0.56. For the substance YRRYVLTL, the amyloid nucleation score amounted to 0.057 ± 0.76. Next, YRSFCWEQ: -0.581 ± 0.56; YRSSLRHFSVYSYNSFSELL: 0.626 ± 0.65. Then YRVSIMYDAWDGLARWFYRR, with 0.507 ± 0.46; and YRWVHLEFGARLAFQSVKNI, with 0.241 ± 0.8; and YRYPRCRVRLVS, with -0.822 ± 0.35. Then YSAFHSMENQTRKMFMEPLP, with -0.311 ± 0.79. YSDMSFAVALAVSWVQAGAW returned an amyloid nucleation score of -0.618 ± 0.63.

Regarding YSENNLIG, the amyloid nucleation score result is “inactive”. Next, YSERSTEGQ: 0.698 ± 0.26. In the case of YSEWSSTRPQFRTLNHEWLL, the amyloid nucleation score worked out at 0.498 ± 0.74. Next, YSISNPYACFSNVQSFLLYN: 2.65 ± 0.15; YSKTLERVDSSVD: 1.26 ± 0.38.

YSLFTT came in with an amyloid nucleation score of -0.451 ± 0.76. Substance YSLLCWVYIRSLNSLNKCCG had an amyloid nucleation score of 3.15 ± 0.075.

For the substance YSLTYLAFSFQKNNTIFLTY, the amyloid nucleation score came to 0.358 ± 0.65. Next, YSMVIY: -0.014 ± 0.76; YSMWGYCISPNKHVYFTHGR: -0.421 ± 0.78; YSRTQENNAGLSYIACTGRR: 0.168 ± 0.56. Then YSSNGPGEKWRYR, with 2.04 ± 0.09; and YSYRVRI, with 3.71 ± 0.056; and YTMASLS, with 1.74 ± 0.13.

Consider YTNAFRPRSVRLTVIRIGQY, for which the amyloid nucleation score was determined as 4.07 ± 0.11. Then YTRKVSAG, with -0.063 ± 0.36. Next, YTRNIHMHFHRMLPNVGMAF: “inactive”. Next, YTYSHAYPRWTMFIWWHDLE: -0.378 ± 0.31; YTYTQTR: 0.25 ± 0.48; YVAILFRFRRSIMFNLLIQM: -0.318 ± 0.8. As for YVCCR, the amyloid nucleation score was 0.565 ± 0.46.

Turning to YVDVGC, the amyloid nucleation score stood at 0.513 ± 0.52.

YVEFCFLTCSASGLAWSLRW came in with an amyloid nucleation score of 0.053 ± 0.31. Then YVFLEGFNRVFDHVACIGLK, with -0.721 ± 0.35. YVGEKRGSVSEYLLHLLSTG: the amyloid nucleation score result is “inactive”. For YVGHRTMMKFTIIVIYYMYP, the amyloid nucleation score is -1.5 ± 1. YVKSRHTNYDGRSTLL gave an amyloid nucleation score of 3.12 ± 0.13. Take YVKVVFCFDLAAMTSRRFYE: the amyloid nucleation score worked out at 0.228 ± 1. Then YVLELKG, with 2.75 ± 0.062; and YVLSRDRSWIHGGVGELGAW, with 0.969 ± 0.53; and YVNVL, with 0.479 ± 0.49. Then YVPPIGGNRHAHLVASCLGS, with 0.434 ± 0.21. Then YVQRNNARVTLGGTHSFRSV, with 3.83 ± 0.068; and YVSHLMFKVSGLPWLGRCNY, with 4.78 ± 0.087.

YVTVTNGMI yielded an amyloid nucleation score of -0.447 ± 0.61.

YVVSQTVRWF: the amyloid nucleation score entry is “inactive”. Substance YWANGSDEDSVGGNIDAVGD had an amyloid nucleation score of -1.07 ± 0.55. Next, YWKGNTRIGQVLFYTLSCKT: 0.389 ± 0.8; YWKPCLVAVGWSTQLRCCPV: -0.324 ± 0.3; YWLSRSWHWKKLFGGWFALL: 0.016 ± 0.54. Next, YWVFI: -0.115 ± 0.56.
